In publication PMC4066585 (Journal of immunology (Baltimore, Md. : 1950), 2014):

B1: mAb H17 (antibody, V domains shown)
VH: EVQLQESGPSLVKPSQTLSLTCTVSGDSITSDYWNWIRQAPGKGLESMGYITYSGTTYYNPSLKSRVTISRDTSKNQYYMELSSLRSEDTATYYCARGVDYEPSYYFDYWGQGTLVTVSS
VL: DIQMTQSPSSLSASVGDRVTITCSASQGISNYLNWYQQKPGKAPKLLIYYTSSLHSGVPSRFSGSGSGTDYSLTISSLQPEDIATYYCQQYSNLPWTFGQGTKVEIK
B2: mAb 3E7 (antibody, V domains shown)
VH: EVQLQESGPSLVKPSQTLSLTCSVTGDSITSDYWNWIRKFPGNKLESMGYITYSGTTYYNPSLKSRISITRDTSKNQYYLQLNSVTSEDTATYYCARGVDYEPSYYFDYWGQGTTLTVSS
VL: DIQMTQTTSSLSASLGDRVTISCSASQGISNYLNWYQQKPDGTVKLLIYYTSSLHSGVPSRFSGSGSGTDYSLTISNLEPEDIATYYCQQYSNLPWTFGGGTKLEIK

Assays:
C3b = C3b (human, UniProt P01024); experiment: SPR
proenzyme C3bB = proenzyme C3bB (Homo sapiens, UniProt P01024;P00751); experiment: SPR
proenzyme C3bB, sequence (P00751 whole entry, looked up, chain 1 of 2): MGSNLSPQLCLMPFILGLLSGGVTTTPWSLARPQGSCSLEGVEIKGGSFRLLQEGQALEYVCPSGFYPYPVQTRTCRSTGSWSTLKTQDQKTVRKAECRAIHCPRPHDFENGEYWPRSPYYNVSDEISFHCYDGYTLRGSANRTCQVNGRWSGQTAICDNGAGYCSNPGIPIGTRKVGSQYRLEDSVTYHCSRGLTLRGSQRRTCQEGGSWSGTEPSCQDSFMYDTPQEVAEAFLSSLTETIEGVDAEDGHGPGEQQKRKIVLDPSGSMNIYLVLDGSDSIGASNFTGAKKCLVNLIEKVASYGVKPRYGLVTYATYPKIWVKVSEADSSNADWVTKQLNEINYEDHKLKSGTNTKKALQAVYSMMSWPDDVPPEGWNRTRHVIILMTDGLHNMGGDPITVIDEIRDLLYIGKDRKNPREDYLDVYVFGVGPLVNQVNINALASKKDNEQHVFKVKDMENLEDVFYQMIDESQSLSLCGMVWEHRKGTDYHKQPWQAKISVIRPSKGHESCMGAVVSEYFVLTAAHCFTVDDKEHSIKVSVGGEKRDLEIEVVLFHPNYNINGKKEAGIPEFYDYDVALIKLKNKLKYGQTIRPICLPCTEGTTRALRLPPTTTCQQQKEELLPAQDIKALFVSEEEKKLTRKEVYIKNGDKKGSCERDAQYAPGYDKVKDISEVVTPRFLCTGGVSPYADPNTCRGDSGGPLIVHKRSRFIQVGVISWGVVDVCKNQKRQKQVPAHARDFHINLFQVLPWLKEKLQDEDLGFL
proenzyme C3bB, sequence (P01024 whole entry, looked up, chain 2 of 2): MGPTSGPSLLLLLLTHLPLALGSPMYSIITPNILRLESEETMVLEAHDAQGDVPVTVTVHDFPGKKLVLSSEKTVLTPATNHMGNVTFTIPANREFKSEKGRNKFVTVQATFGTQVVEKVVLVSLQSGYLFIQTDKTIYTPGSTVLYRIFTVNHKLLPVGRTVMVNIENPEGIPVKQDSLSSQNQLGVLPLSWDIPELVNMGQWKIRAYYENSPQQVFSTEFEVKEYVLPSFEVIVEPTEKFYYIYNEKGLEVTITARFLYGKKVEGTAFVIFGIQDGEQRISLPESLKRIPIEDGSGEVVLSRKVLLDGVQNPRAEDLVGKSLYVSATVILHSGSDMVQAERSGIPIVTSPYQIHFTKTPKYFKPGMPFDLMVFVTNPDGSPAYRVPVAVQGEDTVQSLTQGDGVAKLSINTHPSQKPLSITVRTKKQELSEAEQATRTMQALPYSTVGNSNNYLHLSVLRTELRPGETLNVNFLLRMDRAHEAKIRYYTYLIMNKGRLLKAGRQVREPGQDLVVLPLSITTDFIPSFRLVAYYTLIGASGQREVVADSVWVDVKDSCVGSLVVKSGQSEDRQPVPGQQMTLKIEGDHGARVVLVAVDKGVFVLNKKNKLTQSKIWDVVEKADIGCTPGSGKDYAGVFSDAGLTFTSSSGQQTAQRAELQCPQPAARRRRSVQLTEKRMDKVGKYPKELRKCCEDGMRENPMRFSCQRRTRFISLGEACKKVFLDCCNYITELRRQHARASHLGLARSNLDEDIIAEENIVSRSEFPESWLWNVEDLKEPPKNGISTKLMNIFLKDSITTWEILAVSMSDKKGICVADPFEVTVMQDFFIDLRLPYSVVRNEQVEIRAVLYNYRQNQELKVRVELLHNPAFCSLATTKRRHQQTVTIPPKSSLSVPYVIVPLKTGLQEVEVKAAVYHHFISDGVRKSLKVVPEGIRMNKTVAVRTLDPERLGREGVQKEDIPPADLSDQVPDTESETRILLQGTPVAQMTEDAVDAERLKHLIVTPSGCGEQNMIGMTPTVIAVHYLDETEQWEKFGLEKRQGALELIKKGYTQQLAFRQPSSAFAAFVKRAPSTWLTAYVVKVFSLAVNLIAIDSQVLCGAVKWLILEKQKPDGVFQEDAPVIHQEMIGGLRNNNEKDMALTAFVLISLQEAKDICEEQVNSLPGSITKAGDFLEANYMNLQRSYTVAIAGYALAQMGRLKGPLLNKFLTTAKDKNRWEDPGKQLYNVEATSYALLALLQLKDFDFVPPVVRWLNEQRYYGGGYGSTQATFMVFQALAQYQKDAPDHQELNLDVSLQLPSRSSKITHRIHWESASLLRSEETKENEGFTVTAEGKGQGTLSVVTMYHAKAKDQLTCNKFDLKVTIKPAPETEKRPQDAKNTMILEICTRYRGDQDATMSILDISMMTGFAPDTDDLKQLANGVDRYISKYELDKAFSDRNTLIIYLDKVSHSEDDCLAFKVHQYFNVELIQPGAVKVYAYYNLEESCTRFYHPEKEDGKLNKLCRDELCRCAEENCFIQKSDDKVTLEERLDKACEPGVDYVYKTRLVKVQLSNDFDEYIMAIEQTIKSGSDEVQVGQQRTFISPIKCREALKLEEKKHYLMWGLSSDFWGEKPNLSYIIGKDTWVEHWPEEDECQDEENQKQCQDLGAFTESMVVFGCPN

Row | Binder | Kd (C3b) [nM] | binding result (proenzyme C3bB)
1 | B1 | 28 | no binding (tested: 20 μg/ml)
2 | B2 | – | no binding (tested: 20 μg/ml)
